The results in this text go back to patent publication US20220041691A1, “METHODS FOR DIAGNOSING OR TREATING POST-TRAUMATIC STRESS DISORDER, AND COMPOSITIONS THEREFOR” (Centre for Addiction and Mental Health, priority 2018, published 2022).

Broadly, the Kd is the concentration at which binding is half-saturated.

Substitutions are numbered along the chain they refer to. Names may count otherwise. Read-outs that look alike come from different tables or passages of the source. Ends that are not written are not given here.

The target of one assay is T1, GR (Mus musculus, UniProt P06537).
T1 construct: from tissue; host or cells: mouse brain
T1 sequence (P06537 1-792): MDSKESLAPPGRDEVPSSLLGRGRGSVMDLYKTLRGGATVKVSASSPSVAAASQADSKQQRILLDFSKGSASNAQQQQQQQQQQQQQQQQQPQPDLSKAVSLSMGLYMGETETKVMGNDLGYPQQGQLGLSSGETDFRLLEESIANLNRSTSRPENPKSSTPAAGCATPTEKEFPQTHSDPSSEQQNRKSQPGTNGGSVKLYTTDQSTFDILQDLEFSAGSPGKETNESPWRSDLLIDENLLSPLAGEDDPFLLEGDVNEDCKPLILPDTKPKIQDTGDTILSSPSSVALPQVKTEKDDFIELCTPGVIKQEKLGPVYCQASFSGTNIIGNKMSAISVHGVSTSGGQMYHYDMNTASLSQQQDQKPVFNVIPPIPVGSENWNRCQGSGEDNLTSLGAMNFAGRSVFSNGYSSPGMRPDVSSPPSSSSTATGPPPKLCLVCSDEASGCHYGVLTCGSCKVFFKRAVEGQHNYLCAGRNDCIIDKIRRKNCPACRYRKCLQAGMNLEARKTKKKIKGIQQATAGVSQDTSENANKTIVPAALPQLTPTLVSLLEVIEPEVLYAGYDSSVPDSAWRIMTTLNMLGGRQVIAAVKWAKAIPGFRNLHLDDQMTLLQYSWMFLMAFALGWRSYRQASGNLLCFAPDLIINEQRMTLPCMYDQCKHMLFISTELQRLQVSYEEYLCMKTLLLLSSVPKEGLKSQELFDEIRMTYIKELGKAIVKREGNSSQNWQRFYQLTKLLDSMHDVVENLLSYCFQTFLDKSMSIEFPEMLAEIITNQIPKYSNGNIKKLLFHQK
Put plainly: GST pull-down of GR by GST-FKBP51 fragments in mouse brain tissue. It is filed as binding. From the text: The present inventors identified that if increased GR-FKBP51 complex levels are part of the pathophysiology of PTSD, then disrupting the complex may rescue behaviors related to PTSD. To develop an agent (in this example, a peptide-based agent) capable of blocking the GR-FKBP51 interaction, experiments were first performed to identify the regions of the GR that are important to bind FKBP51 (and vice versa). Initially, GST-fusion proteins were used encoding the amino-terminus (NT) of GR (GRNT) and the carboxyl-terminus (CT) of GR (GRCT) for affinity purification. […] Extending this strategy, GRNT fragments were examined (see FIG. 8, where the 6 tested GRNT fragments, NT-1, NT-2, NT-3, NT-4, NT-5, and NT-6 are shown). […] Similarly, it was determined that the TPR (tetratricopeptide repeat) domains of FKBP51 bind GR (FIG. 2D). In these studies, GST-fusion proteins of 3 different portions of the FKBP51 protein were prepared (FK1, FK2, and TPR, see FIG. 9) and tested. The TPR fragment was identified as containing the relevant interaction region.
GST-fusion proteins encoding truncated GR fragments were amplified by PCR from full-length human cDNA clones. All constructs were sequenced to confirm the absence of PCR-generated errors. […]

The target of a further assay is T2, FKBP51-TPR (Homo sapiens, UniProt Q13451).
T2 construct: made in house; host or cells: bacteria
T2 sequence (Q13451 258-457): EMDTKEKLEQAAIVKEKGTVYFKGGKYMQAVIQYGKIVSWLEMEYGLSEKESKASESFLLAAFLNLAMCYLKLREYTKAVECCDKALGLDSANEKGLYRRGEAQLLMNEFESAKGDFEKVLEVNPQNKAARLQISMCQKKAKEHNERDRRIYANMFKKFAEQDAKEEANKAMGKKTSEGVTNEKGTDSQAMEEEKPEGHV
Nature of the assay: Surface plasmon resonance, binding of FKBP51 TPR domain to GR and its phosphorylation mutants. The following applies: Flag-tagged GR immobilized on sensor chip, 25° C. Here is the method: The binding of FKBP51 TPR domain to GR and its phosphorylation mutants was determined by surface plasmon resonance using a Reichert SR7500DC instrument. Experiments were conducted at 25° C. with 2000 RU HEK293 expressed FLAG-tagged GR bound onto a FLAG antibody-coated Dextran 50,000 Da chip. Running buffer (PBS, pH 7.4 with 0.005% Tween 20) was used with a flow rate of 25 μl/min. With association time of 300s and dissociation of 240s, binding signals were determined by injecting various concentrations of the GST-FKBP51_TPR.
On the technique in general: In SPR one partner is held on a chip, and binding of the other changes the refractive index at the surface.

A further assay has as its target T3, GFP-FKBP51 (Homo sapiens, UniProt Q13451).
T3 sequence (Q13451 1-457): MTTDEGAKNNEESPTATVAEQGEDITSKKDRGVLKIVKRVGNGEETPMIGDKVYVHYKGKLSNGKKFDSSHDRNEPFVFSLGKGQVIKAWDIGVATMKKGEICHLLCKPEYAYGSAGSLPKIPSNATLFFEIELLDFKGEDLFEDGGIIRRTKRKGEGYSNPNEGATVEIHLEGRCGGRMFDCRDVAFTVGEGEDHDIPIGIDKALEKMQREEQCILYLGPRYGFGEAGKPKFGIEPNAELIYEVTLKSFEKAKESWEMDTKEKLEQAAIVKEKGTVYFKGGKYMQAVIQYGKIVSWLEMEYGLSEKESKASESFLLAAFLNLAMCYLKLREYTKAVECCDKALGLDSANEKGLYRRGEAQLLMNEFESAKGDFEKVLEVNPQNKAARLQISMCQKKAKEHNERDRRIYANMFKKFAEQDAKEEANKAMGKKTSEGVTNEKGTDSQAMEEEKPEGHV
Nature of the assay: Co-immunoprecipitation of Flag-GR (WT, S211A, S211E) with GFP-FKBP51 in transfected HEK293T cells. It is filed as cell-based. The following applies: HEK293T cells transfected with GR variant and GFP-FKBP51, n=3. An excerpt: Thus, it was investigated whether the increased GR-FKBP51 seen in fear-conditioned mice and PTSD patients was associated with altered GR S211 phosphorylation. […] Similar results were also seen in samples from PTSD patients (FIG. 5C n=12, p<0.05, t-test). To probe further into how S211 phosphorylation and GR-FKBP51 are related, two GR mutants were generated (see SEQ ID NOs: 10 (S211A) and 11 (S211E) of FIG. 10). S211A is a non-phosphorylated GR mutant and S211E is phosphomimetic GR mutant.
HEK293T cells were maintained as a monolayer culture at 37° C. in Dulbecco's Modified Eagle Medium (DMEM) (Invitrogen) supplemented with 10% fetal bovine serum (Gibco). Cells were grown to 90% confluence before being transiently transfected with DNA constructs by X-treme GENE 9 transfection reagent (Roche), following the manufacturer's instructions. About 24-48 hrs after transfection, cells were used for experiments.
Co-immunoprecipitation and Western blot analyses were performed as previously described.^24, 25, 26 For co-immunoprecipitation, 500˜1000 μg solubilized protein was extracted from whole mouse brain and incubated with primary antibody or control IgG (2˜4 μg) for 4 hrs at 4° C., followed by the addition of 25 μl protein A/G plus agarose (Santa Cruz Biotechnology) for 12 hrs. Pellets were washed, boiled for 5 min in SDS sample buffer and subjected to SDS-PAGE. 50˜100 μg of total protein extract was used as control in each experiment. After transfer of proteins into nitrocellulose, membranes were Western blotted with the primary antibodies. The intensity of protein level was quantified by densitometry (software: ImageLab, Bio-Rad).
Mutants of Flag-GR and GST-GR-NT were created with the QuickChange site-directed mutagenesis kit (Stratagene, La Jolla, Calif.). All mutants were confirmed by DNA sequencing.

Setting [1] is: read-out: KD for binding FKBP51 (SPR).

Regarding “GST-TPR3: GST-fusion protein of FKBP51 TPR fragment 3 (GEAQLLMNEFESAKGDFEKVLEVNPQNKAARLQISMCQKKAKEHNERDRR; also: GST fusion protein)”, in the assay with GR, the “pull-down of GR by GST-FKBP51 fragment, Western blot” value was “can “pull-down””.

B1: S211A GR: non-phosphorylated GR mutant, Flag-tagged (protein)
chain: MDSKESLTPGREENPSSVLAQERGDVMDFYKTLRGGATVKVSASSPSLAVASQSDSKQRRLLVDFPKGSVSNAQQPDLSKAVSLSMGLYMGETETKVMGNDLGFPQQGQISLSSGETDLKLLEESIANLNRSTSVPENPKSSASTAVSAAPTEKEFPKTHSDVSSEQQHLKGQTGTNGGNVKLYTTDQSTFDILQDLEFSSGSPGKETNEAPWRSDLLIDENCLLSPLAGEDDSFLLEGNSNEDCKPLILPDTKPKIKDNGDLVLSSPSNVTLPQVKTEKEDFIELCTPGVIKQEKLGTVYCQASFPGANIIGNKMSAISVHGVSTSGGQMYHYDMNTASLSQQQDQKPIFNVIPPIPVGSENWNRCQGSGDDNLTSLGTLNFPGRTVFSNGYSSPSMRPDVSSPPSSSSTATTGPPPKLCLVCSDEASGCHYGVLTCGSCKVFFKRAVEGQHNYLCAGRNDCIIDKIRRKNCPACRYRKCLQAGMNLEARKTKKKIKGIQQATTGVSQETSENPGNKTIVPATLPQLTPTLVSLLEVIEPEVLYAGYDSSVPDSTWRIMTTLNMLGGRQVIAAVKWAKAIPGFRNLHLDDQMTLLQYSWMFLMAFALGWRSYRQSSANLLCFAPDLIINEQRMTLPCMYDQCKHMLYVSSELHRLQVSYEEYLCMKTLLLLSSVPKDGLKSQELFDEIRMTYIKELGKAIVKREGNSSQNWQRFYQLTKLLDSMHEVVENLLNYCFQTFLDKTMSIEFPEMLAEIITNQIPKYSNGNIKKLLFHQK
modifications: Flag tag; Amino Acid Sequence of S211A GR Mutant (non-phosphorylated GR mutant)
notes: non-phosphorylated GR mutant, Flag-tagged
For B1, in the assay with FKBP51-TPR (setting [1]), the Kd is 0.412 µM. The “GR-FKBP51 complex level (Flag-GR co-immunoprecipitated with GFP-FKBP51) compared to wild-type GR” value was “significantly higher” with GFP-FKBP51 and “higher levels of the GR-FKBP51 complex” with GFP-FKBP51 (listed as S211A-GR).

B2: S211E GR: phosphomimetic GR mutant, Flag-tagged (protein)
chain: B1 chain with A211E
modifications: Flag tag; Amino Acid Sequence of S211E GR Mutant (phosphomimetic GR mutant)
notes: phosphomimetic GR mutant, Flag-tagged
For B2, the Kd with FKBP51-TPR (figure legend values, read-out: KD for binding FKBP51-TPR (SPR)) amounted to 3.9 µM; with FKBP51-TPR (setting [1]) it was 3.9 ± 0.01 µM. Besides, in the assay with GFP-FKBP51, the “GR-FKBP51 complex level (Flag-GR co-immunoprecipitated with GFP-FKBP51) compared to wild-type GR” value is on record as “no significant difference”.

B3: GST-TPR: GST-fusion protein of FKBP51 tetratricopeptide repeat (TPR) domain (protein)
chain: T2 sequence (Q13451 258-457)
modifications: left off: a dimerising Fc or GST
notes: GST-fusion protein of FKBP51 tetratricopeptide repeat (TPR) domain
B3: the “pull-down of GR by GST-FKBP51 fragment, Western blot” value with GR was “can “pull-down””.
